Test results reported in IntAct's records for PubMed 25009770.

Legend:
psmd9_human PSMD9 [1] = biological target: T1, psmd9_human PSMD9 (UniProt O00233)
T1 sequence: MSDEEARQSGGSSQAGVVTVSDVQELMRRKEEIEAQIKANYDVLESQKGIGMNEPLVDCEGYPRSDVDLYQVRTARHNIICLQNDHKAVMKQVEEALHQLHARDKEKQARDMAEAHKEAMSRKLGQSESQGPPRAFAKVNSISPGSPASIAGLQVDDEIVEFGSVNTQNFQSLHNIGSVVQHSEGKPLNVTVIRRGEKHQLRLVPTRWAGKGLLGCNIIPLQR

psmd9_human PSMD9 [2] = biological target: T1, psmd9_human PSMD9; remark: listed apart in the source

**Q.** What does the source list for “Small ribosomal subunit protein uS11 (Homo sapiens) (from UniProt P62263) L151G”?
**A.** effect of a mutation on the interaction (psmd9_human PSMD9 [1]): disrupting interaction strength; effect of a mutation on the interaction (psmd9_human PSMD9 [2]): decreasing interaction strength
